Assay results taken from paper PMC3575195 (Nature communications, 2012).

How the values were obtained:
[1] = target: TRPP3-mCherry (human) (UniProt Q9P0L9); test: single-molecule photobleaching
[2] = target: PKD1L3-mCherry (mouse, UniProt Q2EG98 21-2151); test: single-molecule photobleaching
[3] = target: the molecule itself; test: single-molecule photobleaching
[4] = target: the molecule itself; test: SEC-MALS

Sequence of PKD1L3-mCherry (Q2EG98 21-2151): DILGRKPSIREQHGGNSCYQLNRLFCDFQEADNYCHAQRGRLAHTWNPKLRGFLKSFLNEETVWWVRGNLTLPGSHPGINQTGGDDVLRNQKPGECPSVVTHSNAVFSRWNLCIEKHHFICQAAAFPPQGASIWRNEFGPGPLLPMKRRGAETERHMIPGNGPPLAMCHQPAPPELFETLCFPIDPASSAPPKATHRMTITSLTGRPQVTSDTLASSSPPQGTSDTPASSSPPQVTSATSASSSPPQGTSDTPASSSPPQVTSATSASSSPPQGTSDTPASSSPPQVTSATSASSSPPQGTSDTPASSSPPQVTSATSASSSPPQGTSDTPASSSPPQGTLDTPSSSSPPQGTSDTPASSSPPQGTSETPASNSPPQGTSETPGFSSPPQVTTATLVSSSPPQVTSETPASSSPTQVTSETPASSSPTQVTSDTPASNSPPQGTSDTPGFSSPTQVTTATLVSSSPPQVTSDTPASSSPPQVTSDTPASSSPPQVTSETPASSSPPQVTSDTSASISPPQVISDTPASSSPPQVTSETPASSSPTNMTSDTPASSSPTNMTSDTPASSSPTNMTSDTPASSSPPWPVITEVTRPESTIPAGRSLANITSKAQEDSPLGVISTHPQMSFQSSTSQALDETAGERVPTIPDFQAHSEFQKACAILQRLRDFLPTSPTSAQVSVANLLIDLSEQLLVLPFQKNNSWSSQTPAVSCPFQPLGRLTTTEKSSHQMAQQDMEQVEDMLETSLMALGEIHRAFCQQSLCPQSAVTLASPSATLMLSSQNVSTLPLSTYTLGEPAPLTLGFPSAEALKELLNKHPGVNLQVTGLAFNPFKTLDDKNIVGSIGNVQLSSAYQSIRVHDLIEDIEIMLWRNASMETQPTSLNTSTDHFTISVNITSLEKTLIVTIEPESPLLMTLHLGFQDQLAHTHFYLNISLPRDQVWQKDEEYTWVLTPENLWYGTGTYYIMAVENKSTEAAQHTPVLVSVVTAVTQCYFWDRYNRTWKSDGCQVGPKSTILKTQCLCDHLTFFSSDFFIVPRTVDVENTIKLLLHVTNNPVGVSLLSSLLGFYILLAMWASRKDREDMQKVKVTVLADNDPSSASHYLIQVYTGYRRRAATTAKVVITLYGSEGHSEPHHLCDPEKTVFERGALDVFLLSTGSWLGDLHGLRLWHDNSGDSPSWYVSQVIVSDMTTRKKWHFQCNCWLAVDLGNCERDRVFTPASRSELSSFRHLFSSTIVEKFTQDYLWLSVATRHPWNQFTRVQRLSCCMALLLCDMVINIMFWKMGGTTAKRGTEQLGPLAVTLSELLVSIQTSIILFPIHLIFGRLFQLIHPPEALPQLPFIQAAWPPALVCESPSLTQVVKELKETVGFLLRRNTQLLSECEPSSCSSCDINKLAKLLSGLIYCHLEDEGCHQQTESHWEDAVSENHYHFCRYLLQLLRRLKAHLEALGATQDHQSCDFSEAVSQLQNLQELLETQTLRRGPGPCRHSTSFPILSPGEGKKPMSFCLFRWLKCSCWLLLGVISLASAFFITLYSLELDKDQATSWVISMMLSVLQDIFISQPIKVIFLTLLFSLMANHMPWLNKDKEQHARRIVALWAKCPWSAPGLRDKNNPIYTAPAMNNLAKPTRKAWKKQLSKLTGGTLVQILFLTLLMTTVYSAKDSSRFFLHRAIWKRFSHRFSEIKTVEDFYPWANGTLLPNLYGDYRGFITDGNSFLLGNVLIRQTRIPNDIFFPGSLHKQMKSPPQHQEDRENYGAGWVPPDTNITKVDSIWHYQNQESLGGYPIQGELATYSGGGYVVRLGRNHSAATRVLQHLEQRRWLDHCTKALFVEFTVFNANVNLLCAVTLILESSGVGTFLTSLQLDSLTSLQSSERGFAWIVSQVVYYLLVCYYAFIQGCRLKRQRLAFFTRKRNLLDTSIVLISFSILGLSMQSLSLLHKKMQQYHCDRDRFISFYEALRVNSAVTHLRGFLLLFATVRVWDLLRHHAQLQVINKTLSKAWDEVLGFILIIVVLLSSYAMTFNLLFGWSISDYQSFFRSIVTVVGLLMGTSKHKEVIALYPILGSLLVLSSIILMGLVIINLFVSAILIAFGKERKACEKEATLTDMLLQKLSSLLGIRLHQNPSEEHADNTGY

Molecule: PKD1L3-EGFP, Q2EG98 21-2151
- stoichiometry N [1]: 1

B1: TRPP3-EGFP (natural protein)
chain: MNAVGSPEGQELQKLGSGAWDNPAYSGPPSPHGTLRVCTISSTGPLQPQPKKPEDEPQETAYRTQVSSCCLHICQGIRGLWGTTLTENTAENRELYIKTTLRELLVYIVFLVDICLLTYGMTSSSAYYYTKVMSELFLHTPSDTGVSFQAISSMADFWDFAQGPLLDSLYWTKWYNNQSLGHGSHSFIYYENMLLGVPRLRQLKVRNDSCVVHEDFREDILSCYDVYSPDKEEQLPFGPFNGTAWTYHSQDELGGFSHWGRLTSYSGGGYYLDLPGSRQGSAEALRALQEGLWLDRGTRVVFIDFSVYNANINLFCVLRLVVEFPATGGAIPSWQIRTVKLIRYVSNWDFFIVGCEVIFCVFIFYYVVEEILELHIHRLRYLSSIWNILDLVVILLSIVAVGFHIFRTLEVNRLMGKLLQQPNTYADFEFLAFWQTQYNNMNAVNLFFAWIKIFKYISFNKTMTQLSSTLARCAKDILGFAVMFFIVFFAYAQLGYLLFGTQVENFSTFIKCIFTQFRIILGDFDYNAIDNANRILGPAYFVTYVFFVFFVLLNMFLAIINDTYSEVKEELAGQKDELQLSDLLKQGYNKTLLRLRLRKERVSDVQKVLQGGEQEIQFEDFTNTLRELGHAEHEITELTATFTKFDRDGNRILDEKEQEKMRQDLEEERVALNTEIEKLGRSIVSSPQGKSGPEAARAGGWVSGEEFYMLTRRVLQLETVLEGVVSQIDAVGSKLKMLERKGWLAPSPGVKEQAIWKHPQPAPAVTPDPWGVQGGQESEVPYKREEEALEERRLSRGEIPTLQRS
- stoichiometry N [2]: 3
- stoichiometry N [3]: 3

B2: MBP-TRPP3_CT (domain or fragment)
chain: KEELAGQKDELQLSDLLKQGYNKTLLRLRLRKERVSDVQKVLQGGEQEIQFEDFTNTLRELGHAEHEITELTATFTKFDRDGNRILDEKEQEKMRQDLEEERVALNTEIEKLGRSIVSSPQGKSGPEAARAGGWVSGEEFYMLTRRVLQLETVLEGVVSQIDAVGSKLKMLERKGWLAPSPGVKEQAIWKHPQPAPAVTPDPWGVQGGQESEVPYKREEEALEERRLSRGEIPTLQRS
- stoichiometry N [4]: 3
